Results on two substances are retold here after paper doi:10.1101/2021.01.28.428652.

The target of test [1] is MIK2^ECD-6xHIS, extracellular leucine-rich repeat domain of MALE DISCOVERER 1-… RECEPTOR-LIKE KINASE 2 (Arabidopsis thaliana) (UniProt Q8VZG8). The test is described as follows: ITC. In general terms: In ITC the heat of successive injections is recorded.
For test [2] the target is unchanged. The test is described as follows: SPR. A general note: In SPR one partner is held on a chip, and binding of the other changes the refractive index at the surface.

UniProt Q8VZG8, sequence (Q8VZG8 44-707): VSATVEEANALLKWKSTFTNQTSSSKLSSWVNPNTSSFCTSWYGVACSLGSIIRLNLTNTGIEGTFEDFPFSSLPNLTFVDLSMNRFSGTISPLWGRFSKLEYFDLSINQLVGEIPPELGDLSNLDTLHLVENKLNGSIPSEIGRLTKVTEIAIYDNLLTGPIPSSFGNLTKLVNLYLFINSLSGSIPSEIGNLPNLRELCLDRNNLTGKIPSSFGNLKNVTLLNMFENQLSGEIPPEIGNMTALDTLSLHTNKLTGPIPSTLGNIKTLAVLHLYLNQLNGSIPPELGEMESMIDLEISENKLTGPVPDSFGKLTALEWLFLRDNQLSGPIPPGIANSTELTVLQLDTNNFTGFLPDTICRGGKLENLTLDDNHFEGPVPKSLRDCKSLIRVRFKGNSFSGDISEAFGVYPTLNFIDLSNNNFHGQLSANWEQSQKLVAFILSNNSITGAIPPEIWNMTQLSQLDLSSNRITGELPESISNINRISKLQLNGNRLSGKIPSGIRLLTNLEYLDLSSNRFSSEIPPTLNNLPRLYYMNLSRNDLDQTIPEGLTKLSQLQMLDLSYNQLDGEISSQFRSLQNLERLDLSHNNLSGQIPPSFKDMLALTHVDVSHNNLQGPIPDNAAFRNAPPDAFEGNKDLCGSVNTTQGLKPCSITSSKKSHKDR

Regarding “SCOOP12 peptide (SERINE-RICH ENDOGENOUS PEPTIDE 12)”, in test [1], the dissociation constant (Kd) (commonly a measure of binding affinity in units of concentration) is 3.18 µM and the stoichiometry N (ligand molecule per receptor molecule) was 1. Besides, in test [2], the dissociation constant Kd came to 1.78 µM.

With SCOOP12^SS/AA peptide, the dissociation constant (Kd) in test [2] is 3480 µM.
